Experimental findings from patent US20030153066A1 are described below.

The target of the assay is HIV-1 Gag Pr55 (wild-type) (HIV-1) (UniProt P03348). Description: cell-based or functional assay.

On to WGHP68-GST fusion protein, for which the amount of 750S capsid in HP68-immunodepleted cell-free reactions after reconstitution was determined as 3 fold.
As for “HuHP68-GST fusion protein (from UniProt P61221 1-599)”, the figure is 3 fold.
